# What was measured:
# Assay in all cases: cell-based or functional assay
# HIV-1 Env of CAP256.PI = HIV-1 Env of CAP256.PI (HIV-1)
# HIV-1 Env of CAP256.SU = HIV-1 Env of CAP256.SU (HIV-1)
# HIV-1 Env of 96ZM651.02 = HIV-1 Env of 96ZM651.02 (HIV-1)
# HIV-1 Env of CAP210.E8 = HIV-1 Env of CAP210.E8 (HIV-1)
# HIV-1 Env of CAP244.D3 = HIV-1 Env of CAP244.D3 (HIV-1)
# HIV-1 Env of CAP45.G3 = HIV-1 Env of CAP45.G3 (HIV-1)
# HIV-1 Env of DU156.12 = HIV-1 Env of DU156.12 (HIV-1)
# HIV-1 Env of DU172.17 = HIV-1 Env of DU172.17 (HIV-1)
# HIV-1 Env of DU422.01 = HIV-1 Env of DU422.01 (HIV-1)
# HIV-1 Env of ZM109.4 = HIV-1 Env of ZM109.4 (HIV-1)
# HIV-1 Env of ZM135.10a = HIV-1 Env of ZM135.10a (HIV-1)
# HIV-1 Env of ZM197.7 = HIV-1 Env of ZM197.7 (HIV-1)
# HIV-1 Env of ZM214.15 = HIV-1 Env of ZM214.15 (HIV-1)
# HIV-1 Env of ZM233.6 = HIV-1 Env of ZM233.6 (HIV-1)
# HIV-1 Env of ZM249.1 = HIV-1 Env of ZM249.1 (HIV-1)
# HIV-1 Env of ZM53.12 = HIV-1 Env of ZM53.12 (HIV-1)
# HIV-1 Env of 0260.v5.c36 = HIV-1 Env of 0260.v5.c36 (HIV-1)
# HIV-1 Env of BG505.w6m = HIV-1 Env of BG505.w6m (HIV-1)
# HIV-1 Env of KER2008.12 = HIV-1 Env of KER2008.12 (HIV-1)
# HIV-1 Env of KER2018.11 = HIV-1 Env of KER2018.11 (HIV-1)
# HIV-1 Env of MB201 = HIV-1 Env of MB201 (HIV-1)
# HIV-1 Env of MB539.2B7 = HIV-1 Env of MB539.2B7 (HIV-1)
# HIV-1 Env of Q168.a2 = HIV-1 Env of Q168.a2 (HIV-1)
# HIV-1 Env of Q23.17 = HIV-1 Env of Q23.17 (HIV-1)
# HIV-1 Env of Q259.d2.17 = HIV-1 Env of Q259.d2.17 (HIV-1)
# HIV-1 Env of Q461.e2 = HIV-1 Env of Q461.e2 (HIV-1)
# HIV-1 Env of Q769.d22 = HIV-1 Env of Q769.d22 (HIV-1)
# HIV-1 Env of Q842.d12 = HIV-1 Env of Q842.d12 (HIV-1)
# HIV-1 Env of RW020.2 = HIV-1 Env of RW020.2 (HIV-1)
# HIV-1 Env of UG037.8 = HIV-1 Env of UG037.8 (HIV-1)
# HIV-1 Env of 6535.3 = HIV-1 Env of 6535.3 (HIV-1)
# HIV-1 Env of AC10.29 = HIV-1 Env of AC10.29 (HIV-1)
# HIV-1 Env of CAAN.A2 = HIV-1 Env of CAAN.A2 (HIV-1)
# HIV-1 Env of PVO.04 = HIV-1 Env of PVO.04 (HIV-1)
# HIV-1 Env of QH0692.42 = HIV-1 Env of QH0692.42 (HIV-1)
# HIV-1 Env of REJO.67 = HIV-1 Env of REJO.67 (HIV-1)
# HIV-1 Env of RHPA.7 = HIV-1 Env of RHPA.7 (HIV-1)
# HIV-1 Env of SC422.8 = HIV-1 Env of SC422.8 (HIV-1)
# HIV-1 Env of THRO.18 = HIV-1 Env of THRO.18 (HIV-1)
# HIV-1 Env of TRJO.58 = HIV-1 Env of TRJO.58 (HIV-1)
# HIV-1 Env of TRO.11 = HIV-1 Env of TRO.11 (HIV-1)
# HIV-1 Env of WITO.33 = HIV-1 Env of WITO.33 (HIV-1)
# HIV-1 Env of 191821.E6.1 = HIV-1 Env of 191821.E6.1 (HIV-1)
# HIV-1 Env of 3016.V5.c36 = HIV-1 Env of 3016.V5.c36 (HIV-1)
# HIV-1 Env of 6405.v4.c34 = HIV-1 Env of 6405.v4.c34 (HIV-1)
# HIV-1 Env of C1080.c3 = HIV-1 Env of C1080.c3 (HIV-1)
# HIV-1 Env of CM244.ec1 = HIV-1 Env of CM244.ec1 (HIV-1)
# HIV-1 Env of CNE3 = HIV-1 Env of CNE3 (HIV-1)
# HIV-1 Env of TH976.17 = HIV-1 Env of TH976.17 (HIV-1)
binder,measurement,setting,value
"CAP256-VRC26.02 (antibody, V domains shown) VH: EVQLVESGGGVVQPGRSLRLSCAASQFSFGNYGMHWVRQAPGKGLEWVAAISFAGTKTNYADSVKGRFTISRDNSKNTVYLQMNSLRAEDTALYFCAKDIREYECEYWTSDYYDFGRPQPCIDSRGVVGTFDVWGQGTMVTVSS VL: QSVLTQPPSVSAAPGQKVTISCSGSNSNIGNKDVSWYQQIPATAPKLLIYENNKRPSGISDRFSGSKSGTSATLAITGLQTGDEADYYCATWDGRVSVIGTGTNVIVLG",neutralization IC50,HIV-1 Env of CAP256.PI,> 50 µg/mL
same,neutralization IC50,HIV-1 Env of CAP256.SU,0.015 µg/mL
same,neutralization IC50,HIV-1 Env of 96ZM651.02,> 50 µg/mL
same,neutralization IC50,HIV-1 Env of CAP210.E8,0.062 µg/mL
same,neutralization IC50,HIV-1 Env of CAP244.D3,> 50 µg/mL
same,neutralization IC50,HIV-1 Env of CAP45.G3,> 50 µg/mL
same,neutralization IC50,HIV-1 Env of DU156.12,> 50 µg/mL
same,neutralization IC50,HIV-1 Env of DU172.17,> 50 µg/mL
same,neutralization IC50,HIV-1 Env of DU422.01,> 50 µg/mL
same,neutralization IC50,HIV-1 Env of ZM109.4,> 50 µg/mL
same,neutralization IC50,HIV-1 Env of ZM135.10a,> 50 µg/mL
same,neutralization IC50,HIV-1 Env of ZM197.7,1.97 µg/mL
same,neutralization IC50,HIV-1 Env of ZM214.15,> 50 µg/mL
same,neutralization IC50,HIV-1 Env of ZM233.6,0.701 µg/mL
same,neutralization IC50,HIV-1 Env of ZM249.1,> 50 µg/mL
same,neutralization IC50,HIV-1 Env of ZM53.12,0.043 µg/mL
same,neutralization IC50,HIV-1 Env of 0260.v5.c36,> 50 µg/mL
same,neutralization IC50,HIV-1 Env of BG505.w6m,> 50 µg/mL
same,neutralization IC50,HIV-1 Env of KER2008.12,> 50 µg/mL
same,neutralization IC50,HIV-1 Env of KER2018.11,0.18 µg/mL
same,neutralization IC50,HIV-1 Env of MB201,> 50 µg/mL
same,neutralization IC50,HIV-1 Env of MB539.2B7,> 50 µg/mL
same,neutralization IC50,HIV-1 Env of Q168.a2,> 50 µg/mL
same,neutralization IC50,HIV-1 Env of Q23.17,> 50 µg/mL
same,neutralization IC50,HIV-1 Env of Q259.d2.17,> 50 µg/mL
same,neutralization IC50,HIV-1 Env of Q461.e2,> 50 µg/mL
same,neutralization IC50,HIV-1 Env of Q769.d22,> 50 µg/mL
same,neutralization IC50,HIV-1 Env of Q842.d12,> 50 µg/mL
same,neutralization IC50,HIV-1 Env of RW020.2,> 50 µg/mL
same,neutralization IC50,HIV-1 Env of UG037.8,> 50 µg/mL
same,neutralization IC50,HIV-1 Env of 6535.3,> 50 µg/mL
same,neutralization IC50,HIV-1 Env of AC10.29,> 50 µg/mL
same,neutralization IC50,HIV-1 Env of CAAN.A2,> 50 µg/mL
same,neutralization IC50,HIV-1 Env of PVO.04,7.98 µg/mL
same,neutralization IC50,HIV-1 Env of QH0692.42,> 50 µg/mL
same,neutralization IC50,HIV-1 Env of REJO.67,> 50 µg/mL
same,neutralization IC50,HIV-1 Env of RHPA.7,> 50 µg/mL
same,neutralization IC50,HIV-1 Env of SC422.8,> 50 µg/mL
same,neutralization IC50,HIV-1 Env of THRO.18,> 50 µg/mL
same,neutralization IC50,HIV-1 Env of TRJO.58,> 50 µg/mL
same,neutralization IC50,HIV-1 Env of TRO.11,> 50 µg/mL
same,neutralization IC50,HIV-1 Env of WITO.33,> 50 µg/mL
same,neutralization IC50,HIV-1 Env of 191821.E6.1,> 50 µg/mL
same,neutralization IC50,HIV-1 Env of 3016.V5.c36,0.057 µg/mL
same,neutralization IC50,HIV-1 Env of 6405.v4.c34,> 50 µg/mL
same,neutralization IC50,HIV-1 Env of C1080.c3,> 50 µg/mL
same,neutralization IC50,HIV-1 Env of CM244.ec1,2.03 µg/mL
same,neutralization IC50,HIV-1 Env of CNE3,> 50 µg/mL
same,neutralization IC50,HIV-1 Env of TH976.17,> 50 µg/mL
